Legend:
Test in all cases: holdup assay
Design in all cases: key: below the threshold = too weak to quantify, mostly under pKd 3.1 to 4
Details in all cases: plain residues with an end cap or a label only (N-terminal biotin on a linker: ado-ado)
GRIP2_7, Q9C0E4 = target: GRIP2_7, Q9C0E4
PDZD2_2, O15018 = target: T1, PDZD2_2, O15018
T1 sequence (O15018 329-429, limits assumed, looked up): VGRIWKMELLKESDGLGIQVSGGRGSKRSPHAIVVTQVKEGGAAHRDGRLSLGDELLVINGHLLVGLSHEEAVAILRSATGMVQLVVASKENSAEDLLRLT

MAST2, Q6P0Q8 = target: MAST2, Q6P0Q8
Sequence of MAST2, Q6P0Q8 (Q6P0Q8 1099-1202): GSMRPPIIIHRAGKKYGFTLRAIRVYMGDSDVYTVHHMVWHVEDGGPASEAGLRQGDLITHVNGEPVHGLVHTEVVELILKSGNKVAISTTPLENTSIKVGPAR

MAGI1_2, Q96QZ7 = target: MAGI1_2, Q96QZ7
Sequence of MAGI1_2, Q96QZ7 (Q96QZ7 456-580): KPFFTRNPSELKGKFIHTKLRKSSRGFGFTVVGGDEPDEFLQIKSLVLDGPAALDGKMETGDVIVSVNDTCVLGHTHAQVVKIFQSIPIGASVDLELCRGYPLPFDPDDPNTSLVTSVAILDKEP

GIPC2, Q8TF65 = target: GIPC2, Q8TF65
Sequence of GIPC2, Q8TF65 (Q8TF65 112-203): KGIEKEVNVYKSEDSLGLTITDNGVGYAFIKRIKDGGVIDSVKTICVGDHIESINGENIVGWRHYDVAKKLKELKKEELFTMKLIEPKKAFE

PDZRN4_1, Q6ZMN7 = target: PDZRN4_1, Q6ZMN7
Sequence of PDZRN4_1, Q6ZMN7 (Q6ZMN7 213-318): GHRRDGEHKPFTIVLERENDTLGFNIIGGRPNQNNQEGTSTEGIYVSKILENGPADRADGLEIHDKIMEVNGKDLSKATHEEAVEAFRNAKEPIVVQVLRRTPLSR

ARHGEF11, O15085 = target: T2, ARHGEF11, O15085
T2 sequence (O15085 42-136, limits assumed, looked up): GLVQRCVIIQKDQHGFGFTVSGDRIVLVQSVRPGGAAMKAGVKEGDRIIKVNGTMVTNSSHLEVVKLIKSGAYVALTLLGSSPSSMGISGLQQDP

SNX27, Q96L92 = target: SNX27, Q96L92
GRIP1_2, Q9Y3R0 = target: T3, GRIP1_2, Q9Y3R0
T3 sequence (Q9Y3R0 145-248, limits assumed, looked up): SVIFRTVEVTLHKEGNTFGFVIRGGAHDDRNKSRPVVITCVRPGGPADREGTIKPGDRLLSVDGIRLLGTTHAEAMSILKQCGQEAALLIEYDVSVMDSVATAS

GRIP1_7, Q9Y3R0 = target: T4, GRIP1_7, Q9Y3R0
T4 sequence (Q9Y3R0 999-1096, limits assumed, looked up): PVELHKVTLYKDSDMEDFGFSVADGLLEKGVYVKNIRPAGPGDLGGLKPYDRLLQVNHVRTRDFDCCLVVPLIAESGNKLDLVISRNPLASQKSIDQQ

GRIP2_6, Q9C0E4 = target: GRIP2_6, Q9C0E4
Sequence of GRIP2_6, Q9C0E4 (Q9C0E4 648-740): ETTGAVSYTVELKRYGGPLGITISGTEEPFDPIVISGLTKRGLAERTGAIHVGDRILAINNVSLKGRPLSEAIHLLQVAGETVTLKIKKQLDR

AHNAK1, Q09666 = target: AHNAK1, Q09666
Sequence of AHNAK1, Q09666 (Q09666 4-100): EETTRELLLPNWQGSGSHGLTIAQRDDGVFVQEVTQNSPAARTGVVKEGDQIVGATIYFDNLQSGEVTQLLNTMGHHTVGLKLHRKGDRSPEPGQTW

RAPGEF6, Q8TEU7 = target: T5, RAPGEF6, Q8TEU7
T5 sequence (Q8TEU7 525-625, limits assumed, looked up): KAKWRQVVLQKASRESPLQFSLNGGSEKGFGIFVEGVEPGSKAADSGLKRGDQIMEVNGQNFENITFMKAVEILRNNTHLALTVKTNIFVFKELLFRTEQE

TJP2_1, Q9UDY2 = target: TJP2_1, Q9UDY2
Sequence of TJP2_1, Q9UDY2 (Q9UDY2 24-128): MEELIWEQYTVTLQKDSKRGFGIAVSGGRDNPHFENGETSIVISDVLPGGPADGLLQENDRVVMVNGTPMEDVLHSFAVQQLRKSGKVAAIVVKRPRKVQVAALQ

MPP6, Q9NZW5 = target: T6, MPP6, Q9NZW5
T6 sequence (Q9NZW5 125-219, limits assumed, looked up): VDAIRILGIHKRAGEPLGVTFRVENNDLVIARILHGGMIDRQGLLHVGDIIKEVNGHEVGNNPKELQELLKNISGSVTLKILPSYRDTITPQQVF

Inadl_3, Q8NI35 = target: Inadl_3, Q8NI35
Sequence of Inadl_3, Q8NI35 (Q8NI35 359-469): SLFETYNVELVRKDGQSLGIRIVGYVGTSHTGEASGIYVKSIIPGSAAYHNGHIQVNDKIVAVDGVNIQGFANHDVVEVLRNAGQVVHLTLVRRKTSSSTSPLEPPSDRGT

GORASP1, Q9BQQ3 = target: GORASP1, Q9BQQ3
Sequence of GORASP1, Q9BQQ3 (Q9BQQ3 1-208): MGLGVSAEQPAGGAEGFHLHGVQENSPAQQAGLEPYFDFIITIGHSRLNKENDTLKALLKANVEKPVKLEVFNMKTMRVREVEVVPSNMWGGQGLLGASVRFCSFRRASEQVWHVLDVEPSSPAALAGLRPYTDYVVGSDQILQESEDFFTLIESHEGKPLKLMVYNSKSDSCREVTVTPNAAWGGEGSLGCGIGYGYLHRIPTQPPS

GRIP1_3, Q9Y3R0 = target: T7, GRIP1_3, Q9Y3R0
T7 sequence (Q9Y3R0 247-346, limits assumed, looked up): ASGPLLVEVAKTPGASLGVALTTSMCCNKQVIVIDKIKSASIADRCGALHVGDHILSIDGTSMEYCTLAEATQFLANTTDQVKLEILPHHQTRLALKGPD

LIMK2, P53671 = target: LIMK2, P53671
Sequence of LIMK2, P53671 (P53671 143-248): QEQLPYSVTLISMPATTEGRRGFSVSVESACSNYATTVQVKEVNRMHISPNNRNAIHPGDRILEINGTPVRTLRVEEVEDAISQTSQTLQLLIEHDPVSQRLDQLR

GRID2IP_2, A4D2P6 = target: GRID2IP_2, A4D2P6
Sequence of GRID2IP_2, A4D2P6 (A4D2P6 272-370): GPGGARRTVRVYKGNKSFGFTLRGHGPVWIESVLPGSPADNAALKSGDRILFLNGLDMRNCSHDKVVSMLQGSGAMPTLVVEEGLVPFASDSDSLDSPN

Inadl_10, Q8NI35 = target: Inadl_10, Q8NI35
Sequence of Inadl_10, Q8NI35 (Q8NI35 1673-1763): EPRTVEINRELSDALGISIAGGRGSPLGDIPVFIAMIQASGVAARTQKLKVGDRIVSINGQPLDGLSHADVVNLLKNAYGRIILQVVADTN

Inadl_2, Q8NI35 = target: Inadl_2, Q8NI35
Sequence of Inadl_2, Q8NI35 (Q8NI35 238-335): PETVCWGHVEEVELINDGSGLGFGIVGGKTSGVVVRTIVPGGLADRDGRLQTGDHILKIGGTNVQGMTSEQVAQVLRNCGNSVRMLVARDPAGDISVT

GRIP1_5, Q9Y3R0 = target: T8, GRIP1_5, Q9Y3R0
T8 sequence (Q9Y3R0 568-668, limits assumed, looked up): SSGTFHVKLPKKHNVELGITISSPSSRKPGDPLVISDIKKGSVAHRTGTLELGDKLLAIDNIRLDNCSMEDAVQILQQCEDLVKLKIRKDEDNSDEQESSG

Inadl_6, Q8NI35 = target: Inadl_6, Q8NI35
Sequence of Inadl_6, Q8NI35 (Q8NI35 1058-1167): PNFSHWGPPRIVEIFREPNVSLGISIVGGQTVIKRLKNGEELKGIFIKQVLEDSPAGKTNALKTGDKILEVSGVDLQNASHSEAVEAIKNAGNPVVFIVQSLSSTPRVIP

DFNB31_2, Q9P202 = target: T9, DFNB31_2, Q9P202
T9 sequence (Q9P202 274-371, limits assumed, looked up): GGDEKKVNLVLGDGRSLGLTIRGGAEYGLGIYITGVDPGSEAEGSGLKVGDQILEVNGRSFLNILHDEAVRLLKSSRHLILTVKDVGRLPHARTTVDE

MAGI2_5, Q86UL8 = target: MAGI2_5, Q86UL8
Sequence of MAGI2_5, Q86UL8 (Q86UL8 915-1017): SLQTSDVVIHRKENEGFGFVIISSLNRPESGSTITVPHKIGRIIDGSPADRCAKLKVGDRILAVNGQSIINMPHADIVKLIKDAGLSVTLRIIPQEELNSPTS

Inadl_8, Q8NI35 = target: Inadl_8, Q8NI35
Sequence of Inadl_8, Q8NI35 (Q8NI35 1425-1530): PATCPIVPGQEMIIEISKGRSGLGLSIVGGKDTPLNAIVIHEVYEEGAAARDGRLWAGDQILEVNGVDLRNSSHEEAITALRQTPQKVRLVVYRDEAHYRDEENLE

PCLO, Q9Y6V0 = target: T10, PCLO, Q9Y6V0
T10 sequence (Q9Y6V0 4491-4600, limits assumed, looked up): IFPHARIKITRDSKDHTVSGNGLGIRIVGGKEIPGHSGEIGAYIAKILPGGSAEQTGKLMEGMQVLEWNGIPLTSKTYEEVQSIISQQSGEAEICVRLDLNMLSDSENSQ

Sequence of GRIP2_7, Q9C0E4 (Q9C0E4 934-1023): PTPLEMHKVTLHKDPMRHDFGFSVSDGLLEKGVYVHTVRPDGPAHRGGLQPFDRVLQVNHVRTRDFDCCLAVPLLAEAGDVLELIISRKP

Binder | pKd (GRIP2_7, Q9C0E4) | pKd (PDZD2_2, O15018) | pKd (MAST2, Q6P0Q8) | pKd (MAGI1_2, Q96QZ7) | pKd (GIPC2, Q8TF65) | pKd (PDZRN4_1, Q6ZMN7) | pKd (ARHGEF11, O15085) | pKd (SNX27, Q96L92) | pKd (GRIP1_2, Q9Y3R0) | pKd (GRIP1_7, Q9Y3R0) | pKd (GRIP2_6, Q9C0E4) | pKd (AHNAK1, Q09666) | pKd (RAPGEF6, Q8TEU7) | pKd (TJP2_1, Q9UDY2) | pKd (MPP6, Q9NZW5) | pKd (Inadl_3, Q8NI35) | pKd (GORASP1, Q9BQQ3) | pKd (GRIP1_3, Q9Y3R0) | pKd (LIMK2, P53671) | pKd (GRID2IP_2, A4D2P6) | also measured
QFTLRHWLKV [SLC6A3, Q01959] | below the threshold | below the threshold | 4.82 | below the threshold | below the threshold | below the threshold | below the threshold | 3.76 | below the threshold | below the threshold | 3.9 | below the threshold | below the threshold | below the threshold | below the threshold | below the threshold | 4.13 | below the threshold | below the threshold | below the threshold | pKd (Inadl_10, Q8NI35): below the threshold; pKd (Inadl_2, Q8NI35): below the threshold; pKd (GRIP1_5, Q9Y3R0): below the threshold; pKd (Inadl_6, Q8NI35): below the threshold; pKd (DFNB31_2, Q9P202): below the threshold; pKd (MAGI2_5, Q86UL8): below the threshold; pKd (Inadl_8, Q8NI35): below the threshold; pKd (PCLO, Q9Y6V0): below the threshold
RELVMRVTTV [MARCHF4, Q9P2E8] | below the threshold | 4.46 | 5.29 | 4.81 | below the threshold | 3.88 | 4.71 | 5.48 | below the threshold | below the threshold | below the threshold | below the threshold | below the threshold | 3.86 | 3.59 | 4.03 | 4.36 | below the threshold | below the threshold | 4.06 | pKd (Inadl_10, Q8NI35): below the threshold; pKd (Inadl_2, Q8NI35): below the threshold; pKd (GRIP1_5, Q9Y3R0): below the threshold; pKd (Inadl_6, Q8NI35): 3.95; pKd (DFNB31_2, Q9P202): below the threshold; pKd (MAGI2_5, Q86UL8): 4.05; pKd (Inadl_8, Q8NI35): 5.5; pKd (PCLO, Q9Y6V0): below the threshold
DSATVRTYSC [PPFIA1, Q13136] | 4.15 | 3.7 | 3.98 | below the threshold | below the threshold | below the threshold | 3.66 | below the threshold | below the threshold | below the threshold | 5.71 | below the threshold | below the threshold | below the threshold | below the threshold | below the threshold | below the threshold | below the threshold | below the threshold | 3.49 | pKd (Inadl_10, Q8NI35): below the threshold; pKd (Inadl_2, Q8NI35): below the threshold; pKd (GRIP1_5, Q9Y3R0): below the threshold; pKd (Inadl_6, Q8NI35): below the threshold; pKd (DFNB31_2, Q9P202): below the threshold; pKd (MAGI2_5, Q86UL8): below the threshold; pKd (Inadl_8, Q8NI35): below the threshold; pKd (PCLO, Q9Y6V0): below the threshold
DQPLEKSTKL [AKAP10, O43572] | below the threshold | 4.23 | 5.41 | below the threshold | below the threshold | 3.92 | 4.2 | 5.08 | below the threshold | below the threshold | below the threshold | below the threshold | below the threshold | below the threshold | below the threshold | below the threshold | below the threshold | below the threshold | below the threshold | 4.75 | pKd (Inadl_10, Q8NI35): below the threshold; pKd (Inadl_2, Q8NI35): below the threshold; pKd (GRIP1_5, Q9Y3R0): below the threshold; pKd (Inadl_6, Q8NI35): below the threshold; pKd (DFNB31_2, Q9P202): below the threshold; pKd (MAGI2_5, Q86UL8): 4.02; pKd (Inadl_8, Q8NI35): below the threshold; pKd (PCLO, Q9Y6V0): below the threshold
PASAKGPLGV [CLDN19, Q8N6F1] | below the threshold | below the threshold | below the threshold | below the threshold | below the threshold | below the threshold | below the threshold | below the threshold | below the threshold | below the threshold | below the threshold | below the threshold | below the threshold | below the threshold | below the threshold | below the threshold | below the threshold | below the threshold | below the threshold | below the threshold | pKd (Inadl_10, Q8NI35): below the threshold; pKd (Inadl_2, Q8NI35): below the threshold; pKd (GRIP1_5, Q9Y3R0): below the threshold; pKd (Inadl_6, Q8NI35): below the threshold; pKd (DFNB31_2, Q9P202): below the threshold; pKd (MAGI2_5, Q86UL8): below the threshold; pKd (Inadl_8, Q8NI35): below the threshold; pKd (PCLO, Q9Y6V0): below the threshold
